From PMC12700824 (2025)

Molecular target: FAM118B24–334-F122R (human, UniProt Q9BPY3 24-334, F122R)
Assay: ITC

B1: FAM118B24–334-L32R (domain or fragment)
chain: PTKKPRKLRPSLKTKKPRELVLVIGTGISAAVAPQVPALKSWKGLIQALLDAAIDFDLLEDEESKKFQKCLHEDKNLVHVAHDLIQKLSPRTSNVRSTFFKDCLYEVFDDLESKMEDSGKQLLQSVLHLMENGALVLTTNFDNLLELYAADQGKQLESLDLTDEKKVLEWAQEKRKLSVLHIHGVYTNPSGIVLHPAGYQNVLRNTEVMREIQKLYENKSFLFLGCGWTVDDTTFQALFLEAVKHKSDLEHFMLVRRGDVDEFKKLRENMLDKGIKVISYGDDYADLPEYFKRLTCEISTRGTSAGMVREG
  Kd: 233 nM
